Results: US20140363428A1 (Chugai, published 2014)
Numbering of substitutions follows the chain as printed. Names and notes keep the numbering of the source. Blank lines part the entries; values can stand above or below the binder they belong to.

Legend:
human IgA [1] = target: T1, human IgA (human); test: SPR Biacore T200, 37 C; pH 7.4, 3 microM Ca; steady state affinity
T1 construct: Recombinant antigen; variable region derived from an anti-human IL-6 receptor antibody; also called hIgA
Protocol: (§1) The antibodies isolated as described in 8-2 were assessed for their hIgA-binding activity (dissociation constant KD (M)) using Biacore T200 (GE Healthcare). Running buffers used in the measurement were 0.05% tween20/20 mmol/L ACES/150 mmol/L NaCl (pH 7.4 or 5.8) containing 3 microM or 1.2 mM CaCl₂.
(§2) The antibody was allowed to bind to Sensor chip CM5 (GE Healthcare) immobilized with a suitable amount of recombinant Protein A/G (Thermo Scientific) by the amino coupling method. Then, an appropriate concentration of hIgA (described in 8-1) was injected as an analyte to allow interaction with the antibody on the sensor chip. The measurement was carried out at 37 degrees C. After the measurement, 10 mmol/L glycine-HCl (pH 1.5) was injected to regenerate the sensor chip. The dissociation constant KD (M) was calculated from the measurement result by curve fitting analysis and equilibrium parameter analysis using Biacore T200 Evaluation Software (GE Healthcare).

human IgA [2] = target: T1, human IgA; test: SPR Biacore T200, 37 C; pH 5.8, 1.2 mM Ca; steady state affinity
Protocol: as §1, §2

human IgA [3] = target: T1, human IgA; test: SPR Biacore T200, 37 C, Ab on Protein A/G, hIgA analyte; pH 7.4, 1.2 mM Ca; 1:1 binding model; pH 7.4, 1.2 mM Ca; 1:1 binding model
Protocol: as §1, §2

human IgA [4] = target: T1, human IgA; test: SPR Biacore T200, 37 C, Ab on Protein A/G, hIgA analyte; pH 7.4, 1.2 mM Ca; 1:1 binding model
Protocol: as §1, §2

human IgA [5] = target: T1, human IgA; test: SPR Biacore T200, 37 C; pH 5.8, 3 microM Ca; steady state affinity
Protocol: as §1, §2

[6] = target: T2, soluble human FcRn (heterodimer of FcRn alpha chain and beta2-microglobulin) (human, UniProt P55899 24-297; P61769 21-119); test: statement in Example 3
T2 construct: Signal regions are part of the expressed constructs; also called hFcRn

[7] = target: T2, soluble human FcRn (heterodimer of FcRn …); test: SPR, hFcRn at pH 7.0

T1 sequence (VH, as listed by the source): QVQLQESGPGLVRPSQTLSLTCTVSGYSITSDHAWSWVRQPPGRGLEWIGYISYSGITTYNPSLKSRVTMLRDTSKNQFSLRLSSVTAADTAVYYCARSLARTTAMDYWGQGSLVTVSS

Kd (human IgA [1]): 6.7 µM
Kd (human IgA [2]): 4 µM
kon (human IgA [3]): 400000 M⁻¹ s⁻¹
Kd (human IgA [4]): 0.039 µM
Kd (human IgA [5]): 5 µM
B1: GA2-IgG1 (antibody, V domains shown)
VH: QVQLVQSGAEVKKPGSSVKVSCKASGGTFSSYAISWVRQAPGQGLEWMGGIIPIFGTANYAQKFQGRVTITADESTSTAYMELSSLRSEDTAVYYCARPRWETAISSDAFDIWGQGTMVTVSS
VL: DIQMTQSPSSLSASVGDRVTITCRASQSISDDLNWYQQKPGKAPKLLIYEASNLQSGVPSRFSGSGSGTDFTLTISSLQPEDFATYYCQQHSSSPLTFGQGTKVEIKR

binding result [6]: binds
B2: Fv-4-F946 (antibody, human IgG1, kappa)
heavy: QVQLQESGPGLVKPSETLSLTCAVSGHSISHDHAWSWVRQPPGEGLEWIGFISYSGITNYNPSLQGRVTISRDNSKNTLYLQMNSLRAEDTAVYYCARSLARTTAMDYWGEGTLVTVSSASTKGPSVFPLAPSSKSTSGGTAALGCLVKDYFPEPVTVSWNSGALTSGVHTFPAVLQSSGLYSLSSVVTVPSSSLGTQTYICNVNHKPSNTKVDKKVEPKSCDKTHTCPPCPAPELLGGPSVFLFPPKPKDVLYISRTPEVTCVVVDVSHEDPEVKFNWYVDGVEVHNAKTKPREEQYNSTYRVVSVLQVLHADWLNGKEYKCKVSNKALPAPIEKTISKAKGQPREPQVYTLPPSRDELTKNQVSLTCLVKGFYPSDIAVEWESNGQPENNYKTTPPVLDSDGSFFLYSKLTVDKSRWQQGNVFSCSVMHEALHYHVTQKSLSLSP
light: DIQMTQSPSSLSASVGDSVTITCQASTDISSHLNWYQQKPGKAPELLIYYGSHLLSGVPSRFSGSGSGTDFTFTISSLEAEDAATYYCGQGNRLPYTFGQGTKVEIERTVAAPSVFIFPPSDEQLKSGTASVVCLLNNFYPREAKVQWKVDNALQSGNSQESVTEQDSKDSTYSLSSTLTLSKADYEKHKVYACEVTHQGLSSPVTKSFNRGEC
notes: VH3-F946 and VL3-CK

binding result [7]: binds
B3: Fv-4-F1080 (antibody, human IgG1, kappa, name in EU numbering)
heavy: B2 heavy with V252T, Q309T, A313Q, S426N, V438Y
light: B2 light
modifications: additional N-glycosylation found by SDS-PAGE (S424N)
